Patent US10632208B2, “Peptide-mediated drug delivery across epithelial barrier” (Purdue Research Foundation, priority 2017, dated 2020)

Key:
human TNF-α = test: ELISA of TNF-α in Caco-2 cell supernatants; assay type: cell-based; conditions: recombinant LAP 1 μg/mL, 8 h
Description: A semi-quantitative membrane-based RayBio Human Inflammation Antibody Array kit (Ray Biotech) was used to analyze a panel of 40 inflammatory mediators in Caco-2 cell supernatant infected either with the WT or lap^− strain (MOI, ˜50) at 37° C. for 1 h. After killing the extracellular bacteria by gentamicin (50 μg/mL), the Caco-2 cells were incubated for an additional 7 h at 37° C. Recombinant LAP (1 μg/mL) from ClearColi was incubated for 8 h with Caco-2 cells. After immunoblotting, the reaction intensity was quantified using NIH ImageJ software. The data were normalized and expressed as the mean fold changes as a ratio of lap^−/WT±SEM. For the ELISA, Caco-2 cell supernatants were centrifuged (2,000 rpm at 4° C. for 10 min) following treatment as above, and the quantification of TNF-α and IL-6 in was performed using human TNF-α and IL-6 ELISA kits (Ray Biotech) as per manufacturer's instruction. The quantification of TNF-α and IL-6 protein levels was performed in the ileal tissue lysates from mice using mouse TNF-α and IL-6 ELISA kits (Ray Biotech) as per manufacturer's instruction.

Caco-2 cells = test: Caco-2 cell viability assay (lactate dehydrogenase release); assay type: cell-based, human; conditions: Caco-2 cells treated with purified recombinant LAP
Description: Caco-2 cell viability assay. To determine Caco-2 viability, cell culture supernatants from Caco-2 cells infected with WT, lap^−, lap^−lap^+, ΔinlA and ΔinlA inlA^+ strains (MOI 50, 2 h) grown on Transwell inserts or treated with the purified recombinant LAP for 24 or 48 h were assayed for lactate dehydrogenase release (Thermo Fisher Scientific). Two controls were included for calculation of percent cytotoxicity (LDH release). Low control consisted of supernatant from untreated Caco-2 cells with no exposure to bacteria. High control was from cells treated with 0.1% Triton X-100 for one minute.

NF-κB(p65) [1] = test: Immunoblot of NF-κB activation in Caco-2 cytoplasmic and nuclear extracts; assay type: cell-based, human
Description: To extract the proteins from Caco-2 cells, cells were seeded in 6-well plates for 14-21 days. Following treatment, the cells were washed, scraped from the bottom of 6-well plates, suspended in PBS, and pelleted by centrifugation. Total protein from Caco-2 cells was extracted using the M-PER Extraction Kit (Thermo Fisher Scientific). Detergent-insoluble (membrane) and detergent-soluble (cytosolic) proteins were isolated using a Mem-Per Eukaryotic Protein Extraction Kit (Thermo Fisher Scientific) while the cytosolic and nuclear proteins were extracted using NE-PER Extraction Reagent (Thermo Fisher Scientific). To extract proteins from ileal epithelial cells, the epithelial cell fraction from ileal tissues were isolated as described above and the detergent-insoluble and the detergent-soluble proteins were isolated using a Mem-Per Eukaryotic Protein Extraction Kit.
To extract total protein from intact bacterial cells, sample solvent buffer and sonication (3 cycles of […]) were used. To isolate the cell wall-associated proteins bacterial pellets were resuspended in 0.5 ml protein extraction buffer (0.5% SDS, 10 mM Tris at pH 6.9), and incubated at 37° C. for 30 min with agitation. The samples were centrifuged (14,000×g, 10 min, 4° C.), and the supernatants (containing cell wall-associated proteins) were retained. Halt proteases and phosphatase inhibitors (Thermo Fisher Scientific) were used during all of the protein extraction procedures. The protein concentrations were determined by BCA assay (Thermo Fisher Scientific), and separated on SDS-PAGE gels (10-12.5% polyacrylamide) and electro-transferred to polyvinylidene difluoride (PVDF) membrane (Millipore). The membranes were then blocked in 5% nonfat dry milk (NFDM) in 0.1 M Tris-buffered saline, pH 7.5 (TBS) containing 0.1% Tween 20 (TBST) for at least 1 h. All of the primary antibodies were diluted in 5% bovine serum albumin (BSA) or 5% NFDM in TBST and incubated overnight. Secondary antibodies (1:2000 in 5% NFDM in TBST) incubated for 1 h at 37° C., and a chemiluminescence method was performed using LumiGLO reagent (Cell Signaling). The membranes were exposed to X-ray films or visualized using the Chemi-Doc XRS system (Bio-Rad). To immunoprobe the same membrane with another antibody, the originally bound antibodies from the membranes were removed by incubating the membranes in Restore Western Blot Stripping Buffer (Thermo Fisher Scientific) according to the manufacturer's protocol. To compare the reaction intensities, the average band densities were determined using Quantity One software (Bio-Rad). Densitometry reports represent the mean±SEM after normalization to the loading control and is presented as % change of protein with the average for untreated cells (control) set at 100%. Immunoblots and densitometric reports are representative of 2-3 independent experiments.

NF-κB(p65) [2] = test: Confocal immunofluorescence of p65 localization in Caco-2 cells; assay type: cell-based, human; conditions: 30 min
Description: For antibody labeling in cells, Caco-2 cells, were grown to 40-50% confluence in four-chambered slides (Millipore). At the end of the treatment, the cells were fixed with 3.7% formaldehyde in PBS for 20 min and permeabilized and blocked with PBS containing 0.3% Triton X-100 and 3% BSA (Sigma-Aldrich) for 1 h at room temperature and then incubated with respective antibodies overnight at 4° C. Following antibody incubation, the cells were washed with PBS (3 cycles, 5 min) and incubated with FITC or Alexa Fluor 555-conjugated secondary antibody for 2 h at room temperature. The nuclei were stained with DAPI (500 ng/ml; Cell signaling) and slides were mounted in ProLong antifade reagent (Cell Signaling).
All images were acquired using a Nikon A1R MP Multiphoton (Nikon) Confocal fluorescence microscope using a 60× oil immersion objective equipped with the Nikon Elements software (Nikon) at the Purdue Bioscience Imaging Facility. The X-Z and Y-Z cross-sections were produced by orthogonal reconstructions from z-stack scanning at 0.15 μm intervals taken with 60× objective in 5 μm thick paraffin embedded tissue section. Three-dimensional reconstructions were performed using Nikon elements software (Nikon).

[3] = Caco-2 cells, LAP 1 μg/ml, 30 min (FIG. 5D)
[4] = LAP 1000 ng/mL or TNF-α 10 ng/mL
[5] = shRNA vector control Caco-2 cells, LAP 1 μg/mL (FIG. 5B)

B1: LAP: Listeria adhesion protein, alcohol acetaldehyde dehydrogenase of Listeria monocytogenes, 866 aa, 94 kDa; recombinant, histidine-tagged form SEQ ID NO: 10 (protein)
chain: MAIKENAAQEVLEVQKVIDRLADNGQKALKAFESYNQEQVDNIVHAMALAGLDQHMPLAKLAVEETGRGLYEDKCIKNIFATEYIWNNIKNNKTVGVINEDVQTGVIEIAEPVGVVAGVTPVTNPTSTTLFKAIIAIKTRNPIIFAFHPSAQRCSSAAAKVVYDAAIAAGAPEHCIQWVEKPSLEATKQLMNHDKVALVLATGGAGMVKSAYSTGKPALGVGPGNVPAYIDKTAKIKRSVNDIILSKSFDQGMICASEQAVIVDKEVAKEVKAEMEANKCYFVKGAEFKKLESYVINPEKGTLNPDVVGKSPAWIANQAGFKVPEDTKILVAEIKGVGDKYPLSHEKLSPVLAFIEAANQAEAFDRCEEMLVYGGLGHSAVIHSTDKEVQKAFGIRMKACRIIVNAPSAQGGIGDIYNGFIPSLTLGCGSYGKNSVSQNVSATNLLNVKRIADRRNNMQWFKLPPKIFFEKYSTQYLQKMEGVERVFIVTDPGMGSFKYVDVVIEHLKKRGNDVAYQVFADVEPDPSDVTVYKGAELMKDFKPDTIIALGGGSAMDAAKGMWLFYEHPEASFFGLKQKFLDIRKRTFKYPKLGGKAKFVAIPTTSGTGSEVTPFAVITDKENNIKYPLADYELTPDVAIVDAQYVTTVPAHITADTGMDVLTHAIESYVSVMASDYTRGLSIRAIELVFENLRESVLTGDPDAREKMHNASALAGMAFANAFLGINHSLAHKIGPEFHIPHGRANAILMPHVIRYNALKPKKHALFPRYESFRADEDYARISRIIGFPAATTEEGVKSLVDEIIKLGKDVGIDMSLKGQNVAKKDLDAVVDTLADRAFMDQCTTANPKQPLVSELKEIYLEAYKGV
modifications: Listeria monocytogenes
TNF-α production (human TNF-α): significantly higher levels
cytopathic or cytotoxic effects (LDH assay) (Caco-2 cells): without causing any cytopathic or cytotoxic effects
increase of IKK-β protein expression (NF-κB(p65) [1]; [3]): 53±2%
increase of p65 protein expression (NF-κB(p65) [1]; [3]): 63±5%
protein expression levels of IKK-β and p65 (NF-κB(p65) [1]; Hsp60 knocked-down (hsp60::shRNA) Caco-2 cells, LAP 1 μg/mL): basal protein expression levels
increase of IKKα in the cytosol relative to untreated cells (NF-κB(p65) [1]; LAP 1 μg/mL, 30 min): 267±7%
increase of P-p65 in the nucleus relative to untreated cells (NF-κB(p65) [1]; LAP 1 μg/mL, 30 min): 120±23%
increase of p65 in the nucleus relative to untreated cells (NF-κB(p65) [1]; LAP 1 μg/mL, 30 min): 218±32%
time of appearance of cytoplasmic phospho-IκBα (Ser32) (NF-κB(p65) [1]; [4]): 15 min
time of increase in nuclear p65 and P-p65 (NF-κB(p65) [1]; [4]): 30 min
time by which most IκBα was degraded (NF-κB(p65) [1]; LAP 1000 ng/mL, 0-120 min): ≤ 45 min
time of rapid degradation of IκBα (NF-κB(p65) [1]; LAP 1000 ng/mL, 0-120 min): ≤ 15 min
increase of IKK-β protein expression (NF-κB(p65) [1]; [5]): 52±8%
increase of p65 protein expression (NF-κB(p65) [1]; [5]): 54±8%
localization of p65 (NF-κB(p65) [2]; Caco-2 cells, LAP 1 μg/mL or TNF-α 10 ng/mL): in the nucleus
localization of p65 (NF-κB(p65) [2]; Hsp60 knocked-down Caco-2 cells): retained p65 within the cytoplasm
localization of p65 (NF-κB(p65) [2]; shRNA vector control Caco-2 cells): nuclear translocation of p65
